± gives the half width of the 95% confidence interval.
Tests used:
[1] = folding stability dG unfold from trypsin proteolysis; higher = more stable
Summary of the method: (§1)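 Only designs with AlphaFold2 dimer inter-PAE above 15 were retained; each was a mini-protein under 80 residues with no cysteine, in a PA-tagged cDNA display construct. After digestion with trypsin and chymotrypsin and sequencing, K50 was inferred by Bayesian fitting of counts, and unfolding free energy was derived per protease or combined against a sequence-predicted unfolded-state K50 and a shared folded-state K50.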

[2] = folding stability dG unfold from chymotrypsin proteolysis; higher = more stable
Summary of the method: as §1

[3] = folding stability dG unfold (combined trypsin and chymotrypsin); higher = more stable
Summary of the method: as §1

Sequence | folding stability dG unfold [1] | folding stability dG unfold [2] | folding stability dG unfold [3]
SAGGDEIVERVRQLFEDLGFPVEIVDDDAPDGVLRVRISPEAVEKLGPLVINLPFPDIKEVRTELLPSAGGS [r8_318_TrMRF] | 0.968 ± 0.013 kcal/mol | 1.5 ± 0.015 kcal/mol | 1.26 ± 0.025 kcal/mol
SAGGSAGGSAGMEIEEEDGKLRLRLEAEFEVTVTTRNADGSTTETTARVRVELTFELPEESAGGSAGGSAGG [r17_103_TrROS_Hall] | 3.67 ± 0.29 kcal/mol | 3.89 ± 0.12 kcal/mol | 3.89 ± 0.22 kcal/mol
SGFTVEVEVEYYPETGVLEVTVTTDGSSEQLIRDVADFIKEAGLDFVIESVEVEESGEVTTITLKLYVPPSA [r9_164_TrMRF] | 3.03 ± 0.18 kcal/mol | 4 ± 0.12 kcal/mol | 3.78 ± 0.21 kcal/mol
SGLKDVISVTVTQSPTAGEVPVVTAYSPDGSRTFNLAPEETEAFLKALREAGYNVVVTDRVFVPVPAELGSA [r9_607_JUSTAS] | 1.676 ± 0.016 kcal/mol | 1.38 ± 0.052 kcal/mol | 1.56 ± 0.052 kcal/mol
SAGGSAGGSEKPVLIVKVKVKNPKTKKWEEKTIEVPEGVKTPEEVAKALEKEFGDVVKVEILPSAGGSAGGS [r12_942_TrROS_Hall] | 1.25 ± 0.064 kcal/mol | 1.86 ± 0.11 kcal/mol | 1.63 ± 0.19 kcal/mol
SAGGKKFKIKEITITYNPDADTVTMTVKLDDGTTVELTFNKETKKLTVKVINKDTGEEKEFEFTLPDSAGGS [r8_363_TrROS_Hall] | 3.1 ± 0.17 kcal/mol | 4.9 ± 0.25 kcal/mol | 4.77 ± 0.24 kcal/mol
SAGGSAGGSAGGKELEIVLYDKETNVLVTAKVRMENGKLTITEVKVEKVKPPKLPPGVKPSAGGSAGGSAGG [r7_276_TrROS_Hall] | 1.48 ± 0.06 kcal/mol | 2.44 ± 0.071 kcal/mol | 2.14 ± 0.079 kcal/mol
DIDIETHPNGTILIKVPRNLLDEIKDILKENGYNVKITGIDPDWGYIRFPLKPVPPPPPKPSPEDAEEQGDS [r1_78_TrROS] | 1.76 ± 0.082 kcal/mol | 2.14 ± 0.041 kcal/mol | 1.89 ± 0.14 kcal/mol
SAGGSAGGSAMLTKITITFEKPGTDETFTKPIDVPPDNPEEAIKAIKEELKKKGYKVKSVILSAGGSAGGSA [r18_3_JUSTAS] | 1.28 ± 0.078 kcal/mol | 1.73 ± 0.074 kcal/mol | 1.57 ± 0.15 kcal/mol
SMYTTVTVEVDITLADKTPDGTWTPVGTFPIKVTVTVPESRPEEAREEALARARAEVEAFAASRGLTVVVSA [r9_356_JUSTAS] | 1.76 ± 0.043 kcal/mol | 2.21 ± 0.043 kcal/mol | 2.07 ± 0.079 kcal/mol
SAGGSAGGKKKVLLVKVEIELPNGEKLELVAESEEEALEALKKLLEKKGLKIKKVEIVELEEKESAGGSAGG [r6_405_TrROS_Hall] | 1.64 ± 0.071 kcal/mol | 2.41 ± 0.051 kcal/mol | 2.17 ± 0.077 kcal/mol
SAGGSAGGSPRIVRVEVDPPPGGLGLARIEVEVVDPSTGVPRLERRTVPVPLGDWKKLLDFLGSAGGSAGGS [r12_691_TrMRF] | 2.06 ± 0.051 kcal/mol | 2.25 ± 0.054 kcal/mol | 2.23 ± 0.15 kcal/mol
SAGGSAGGSAGGMVVEVVELPDGQLVVRAGPVGYAVVFNGEEVTLFELPPDAEVELLPFSAGGSAGGSAGGS [r10_637_TrMRF] | 1.1 ± 0.032 kcal/mol | 1.55 ± 0.089 kcal/mol | 1.36 ± 0.098 kcal/mol
SAGGSAKNEYITVNITIIVYNPEDGKIEKIINLPIKVPKNLTKEQVINLAKKLLEEKGYEIAEIKGSAGGSA [r15_195_TrMRF] | 2.22 ± 0.12 kcal/mol | 3.24 ± 0.13 kcal/mol | 2.85 ± 0.2 kcal/mol
SAGGSAGGSKVKLTFTIPPGTTPEEAIAKAEELAKKLNIPIVKIDSIEYDPETGTVRIELELDSAGGSAGGS [r12_131_TrMRF] | 4.05 ± 0.15 kcal/mol | 4.31 ± 0.049 kcal/mol | 4.31 ± 0.068 kcal/mol
SAGGSAGGSAGGGDFEKVKVRFRYVNPDGGPERDIEIEVEARKEDIPRLLKELKDAGLIESAGGSAGGSAGG [r7_618_TrMRF] | 0.982 ± 0.054 kcal/mol | 1.25 ± 0.15 kcal/mol | 1.23 ± 0.099 kcal/mol
SAGGAPGVPSVTVIPFDPSTGRALALVVDGDRVYVISSAVPLEVLRELGVDRVEPLPDGTLVAVSLASAGGS [r8_382_TrMRF] | 1.13 ± 0.02 kcal/mol | 1.49 ± 0.027 kcal/mol | 1.38 ± 0.041 kcal/mol
SAGGSAGGSSVEVTEDPSTGKLTVTVPPDLTSVTIKEKDKTITIPLPPGASITLPSGTVTVALSAGGSAGGS [r20_26_JUSTAS] | 1.56 ± 0.059 kcal/mol | -0.168 ± 0.1 kcal/mol | 0.935 ± 0.1 kcal/mol
SAGGPMKPFLKNFSGPEEAIAFVNKLREELKGPVGLTLIFPDGSVIEVVDPQKLESIDNFEVIVTVSESAGG [r13_620_JUSTAS] | 1.39 ± 0.039 kcal/mol | 1.8 ± 0.085 kcal/mol | 1.69 ± 0.096 kcal/mol
SAGGSAVSISTVTSTSFPGSGTSVKTYETPDFTVTVTTTRDPNGADTVEIHTDDPEAEKTVREYLASAGGSA [r15_42_JUSTAS] | 0.601 ± 0.049 kcal/mol | -0.348 ± 0.28 kcal/mol | 0.337 ± 0.14 kcal/mol
SNNKRITIEIPFPMPAEQARNFMEAFGIKKIEYEKHDDPGYYRVKYTVPDDNVTIDIHIFPPPVPPGQKPSA [r9_1090_TrROS] | 1.23 ± 0.024 kcal/mol | 1.83 ± 0.15 kcal/mol | 1.67 ± 0.13 kcal/mol

Reference: the supplement of paper PMC12764529
